Reference: patent publication US20260070978A1 (LENTIGEN TECHNOLOGY, published 2026)
Residue numbers refer to the chain shown, from its start. One block for each binder: values may come before it.

Legend:
recombinant human CD22 = molecular target: T1, recombinant human CD22 (human, UniProt P20273 20-687, limits assumed, fluorescent label, kind and site not stated); assay: flow cytometry of yeast-displayed scFv with decreasing amounts of labeled CD22
T1 construct: soluble labeled antigen titrated on yeast; sorting steps used CD22-Fc, so the labeled antigen may be the Fc fusion; also called labeled CD22; fluorescently tagged antigen
T1 sequence (looked up): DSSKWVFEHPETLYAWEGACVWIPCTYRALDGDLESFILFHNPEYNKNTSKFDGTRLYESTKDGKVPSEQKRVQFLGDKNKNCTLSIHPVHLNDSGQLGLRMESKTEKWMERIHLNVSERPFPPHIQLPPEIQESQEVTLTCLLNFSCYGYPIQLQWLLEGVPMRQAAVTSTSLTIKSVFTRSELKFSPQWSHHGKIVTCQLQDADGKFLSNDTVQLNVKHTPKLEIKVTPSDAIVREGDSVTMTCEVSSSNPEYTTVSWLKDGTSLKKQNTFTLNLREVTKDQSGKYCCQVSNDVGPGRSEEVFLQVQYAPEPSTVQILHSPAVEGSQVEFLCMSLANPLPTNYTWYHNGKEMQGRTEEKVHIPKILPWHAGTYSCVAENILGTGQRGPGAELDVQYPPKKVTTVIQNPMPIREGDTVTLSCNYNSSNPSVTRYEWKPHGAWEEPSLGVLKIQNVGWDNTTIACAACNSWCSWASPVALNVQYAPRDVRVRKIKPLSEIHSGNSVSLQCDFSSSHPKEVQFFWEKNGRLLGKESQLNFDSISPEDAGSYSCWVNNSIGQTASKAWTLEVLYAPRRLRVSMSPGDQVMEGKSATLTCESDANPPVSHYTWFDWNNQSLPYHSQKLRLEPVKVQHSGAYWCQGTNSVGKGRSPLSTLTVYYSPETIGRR

recombinant human CD19 = molecular target: T2, recombinant human CD19 (human, UniProt P15391 20-291, limits assumed, fluorescent label, kind and site not stated); assay: flow cytometry of yeast-displayed scFv with decreasing amounts of labeled CD19
T2 construct: soluble labeled antigen titrated on yeast; sorting steps used CD19-Fc, so the labeled antigen may be the Fc fusion; also called labeled CD19; fluorescently tagged antigen
T2 sequence (looked up): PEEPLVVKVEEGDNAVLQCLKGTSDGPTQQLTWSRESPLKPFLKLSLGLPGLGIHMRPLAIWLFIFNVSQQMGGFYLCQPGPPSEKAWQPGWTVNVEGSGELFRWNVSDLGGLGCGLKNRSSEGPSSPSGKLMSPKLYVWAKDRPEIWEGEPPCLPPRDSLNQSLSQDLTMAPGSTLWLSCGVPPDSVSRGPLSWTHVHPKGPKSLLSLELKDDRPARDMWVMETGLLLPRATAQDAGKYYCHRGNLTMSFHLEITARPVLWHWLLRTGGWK
Experimental: To increase the affinity of m19217, a yeast-display m19217 mutant scFv library was created by using error-prone PCR to create random point mutations in scFv gene sequences. After electroporation, the resulting mutant library was then grown overnight at 30° C. for 16 hours in SDCAA medium and then switched into SGCAA medium at 30° C. for another 16 hours. The mutant library was then sorted through MACS (immunomagentic column, Miltenyi Biotec) with CD19-Fc as the capture antigen to downsize the library and to increase the population of mutants that could bind to CD19-Fc. The strongest binders were then selected by double staining the pools with Anti-c-Myc-Alexa 488 and CD19-Fc/Anti-Hu-Fc and selecting for the binders that had the highest binding affinities as well as c-Myc expression levels. This process was then repeated two more times, until flow cytometry of yeast particles with fluorescently tagged antigen yielded average binding affinities of the mutant pools that were increased over the starting construct. Binding affinities were estimated by flow cytometry of yeast pools using decreasing amounts of labeled CD19.

EC50 (recombinant human CD19): < 0.01 µg/mL
B2: human anti-CD19 ScFv binder M19217-1 (scFv)
scFv: EVQLVQSGAEVKKPGASVKVSCKASGYTFTSYYMHWVRQAPGQGLEWMGLINPSGGSTSYAQKFQGRVTMTRDTSTSTVYMELSSLRSEDTAVYYCARSDRGITATDAFDIWGQGTMVTVSSGGGGSGGGGSGGGGSQSVLTQPPSVSVAPGRMAKITCGGSDIGNKNVHWYQQKPGQAPVLVVYDDYDRPSGIPERFSGSNSGDAATLTISTVEVGDEADYFCQVWDGSGDPYWMFGGGTQLTVL
notes: also called LTG2065

EC50 (recombinant human CD19): < 0.01 µg/mL
B7: human anti-CD19 ScFv binder M19217-29 (scFv)
chain: EVQLVQSGAEVKKPGASVKVSCKASGYTFTSYYMHWVRQAPGQGLEWMGMINPSGGSTSYAQKFQGRVTMTRDTSTSTVYMELSSLRSEDTAVYYCARSDRGITATDAFDIWGQGTMVTVSSGGGGSGGGGSGGGGSQSVLTQPPSVSVAPGQTAKITCGGSDIGNKNAHWYQQKPGQAPVLVVYDDYDRPSGISERFSGSNSGDAATLTISTVEVGDEADYFCQVWDGSGDPFWVFGGGTQLTVLG

EC50 (recombinant human CD19): < 0.01 µg/mL
B8: human anti-CD19 ScFv binder M19217-40 (scFv)
chain: B7 chain with K13R, E46V, M50L, I157T, A169V, S195P, F223V, F234Y

Further lines, the binder ahead of its results:

B1: human anti-CD22 ScFv binder 16P17 (scFv, V domains shown)
VH: QVQLQQSGPGLVKHSQTLSLTCAISGDSVSSNSAAWNWIRQSPSRGLEWLGRTYYRSKWYNDYAVSVKSRITINPDTSKNQFSLQLNSVTPEDTAVYYCAQEVEPHDAFDIWGQGTMVTVSS
VL: DIQMTQSPSSVYASVGDKVTITCRASQDVSGWLAWYQQKPGLAPQLLISGASTLQGEVPSRFSGSGSGTDFTLTISSLQPEDFATYYCQQAKYFPYTFGQGTKLEIK
EC50 (recombinant human CD22): < 0.01 µg/mL

B3: human anti-CD19 ScFv binder M19217 (scFv)
chain: B7 chain with M50I, A169V, S195P, G229S, F234Y
EC50 (recombinant human CD19): 0.5 µg/mL

B4: human anti-CD19 ScFv binder M19217-23 (scFv)
chain: B7 chain with S31G, M48I, M50L, A61E, T69A, N166D, A169V, S195P, S230I, F234Y
EC50 (recombinant human CD19): < 0.01 µg/mL

B5: human anti-CD19 ScFv binder M19217-2 (scFv)
chain: B7 chain with L45F, M50L, G56S, S85N, S148P, T158I, A169V, S195P, F234Y
EC50 (recombinant human CD19): < 0.01 µg/mL

B6: human anti-CD19 ScFv binder M19217-7 (scFv)
chain: B7 chain with K12N, A105S, V149L, A169V, D189N, S195P, A206S, F234Y
EC50 (recombinant human CD19): < 0.01 µg/mL

B9: human anti-CD19 ScFv binder M19217-38 (scFv)
chain: EVQLVQSGAEVKRPGASVKVSCKASGYTFTSYYMHWVRQAPGRGLEWMGLINPSGGSTSYAQEFQGRVTMTRDMSTSTVYMELSSLRSEDTAVYYCARSDRGISATDAFDIWGQGTMVTVSSGGGGSGGGGSGGGGSQSVLTQPPSVSVAPGQMAKITCGGSDIGNKNVHWYQQKPGQAPVLVVYDDYNRPSGIPERFSGSNSGDAATLTISTVEVGDEADYFCQVWDGSGDPYWVFGGGTQLTDLG
EC50 (recombinant human CD19): < 0.01 µg/mL
